How the values were obtained:
[1] = target: the molecule itself; experiment: SEC-MALS; MALLS-SEC of MBP fusion proteins, 20 mL Superdex 200, starting concentration 3-10 μM, GFB buffer (20 mM Tris pH 8.0, 0.2 M NaCl, 50 μM ZnCl2, 5 mM βME)
[2] = target: T1, MBP-CND (RAG1 central non-core domain) (murine, UniProt P15919 87-217); experiment: EMSA; 5 mM Mg2+; range covers EMSA and anisotropy; EMSA: 10 mM Tris pH 8.0, 5 mM MgCl2, 2 mM DTT, 6% glycerol, 100 mM NaCl, 25 C, 1 nM 32P-DNA; 3.5/8% discontinuous nondenaturing gel; conditions: protein: recombinant; tags: N-terminal MBP; blunt
T1 sequence: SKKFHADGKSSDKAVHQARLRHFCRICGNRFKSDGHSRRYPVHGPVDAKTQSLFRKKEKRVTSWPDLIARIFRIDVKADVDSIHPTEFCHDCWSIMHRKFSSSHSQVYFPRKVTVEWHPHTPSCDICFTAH

MBP-bZDD = target: T2, MBP-bZDD (murine, UniProt P15919 218-380); experiment: EMSA; 5 mM Mg2+; EMSA: 10 mM Tris pH 8.0, 5 mM MgCl2, 2 mM DTT, 6% glycerol, 100 mM NaCl, 25 C, 1 nM 32P-DNA; 3.5/8% discontinuous nondenaturing gel; conditions: protein: recombinant; tags: N-terminal MBP; chain copies: 2; blunt
T2 sequence: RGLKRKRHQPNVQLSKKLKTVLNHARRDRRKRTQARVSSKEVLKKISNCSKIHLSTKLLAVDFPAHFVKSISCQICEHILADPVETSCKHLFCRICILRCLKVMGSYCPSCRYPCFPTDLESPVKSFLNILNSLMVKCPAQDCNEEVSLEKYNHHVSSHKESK

[3] = target: T1, MBP-CND (RAG1 central non-core domain); experiment: fluorescence anisotropy; range covers EMSA and anisotropy; EMSA: 10 mM Tris pH 8.0, 5 mM MgCl2, 2 mM DTT, 6% glycerol, 100 mM NaCl, 25 C, 1 nM 32P-DNA; 3.5/8% discontinuous nondenaturing gel; conditions: protein: recombinant; tags: N-terminal MBP; blunt
[4] = target: T1, MBP-CND (RAG1 central non-core domain); experiment: EMSA; 5 mM Mg2+; EMSA: 10 mM Tris pH 8.0, 5 mM MgCl2, 2 mM DTT, 6% glycerol, 100 mM NaCl, 25 C, 1 nM 32P-DNA; 3.5/8% discontinuous nondenaturing gel; conditions: protein: recombinant; tags: N-terminal MBP; label: 5' 32P; hairpin, fully complementary
MBP-CND+bZDD = target: T3, MBP-CND+bZDD (murine, UniProt P15919 87-380); experiment: as above; conditions: protein: recombinant; tags: N-terminal MBP; chain copies: 2; label: 5' 32P; hairpin, fully complementary
T3 sequence: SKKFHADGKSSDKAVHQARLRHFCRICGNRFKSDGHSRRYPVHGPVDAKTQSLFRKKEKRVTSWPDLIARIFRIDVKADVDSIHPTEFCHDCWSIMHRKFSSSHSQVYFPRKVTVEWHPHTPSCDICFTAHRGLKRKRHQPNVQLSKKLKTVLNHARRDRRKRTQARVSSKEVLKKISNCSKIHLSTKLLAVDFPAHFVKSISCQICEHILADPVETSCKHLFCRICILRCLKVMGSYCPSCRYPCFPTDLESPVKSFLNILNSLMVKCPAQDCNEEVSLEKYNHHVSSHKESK

[5] = target: T1, MBP-CND (RAG1 central non-core domain); experiment: competition; 1.5 uM MBP-CND, 1 nM labeled WT 12-RSS; EMSA: 10 mM Tris pH 8.0, 5 mM MgCl2, 2 mM DTT, 6% glycerol, 100 mM NaCl, 25 C, 1 nM 32P-DNA; 3.5/8% discontinuous nondenaturing gel; conditions: protein: recombinant; tags: N-terminal MBP; blunt

B1: MBP-bZDD (domain or fragment, murine, UniProt P15919 218-380, looked up)
chain: RGLKRKRHQPNVQLSKKLKTVLNHARRDRRKRTQARVSSKEVLKKISNCSKIHLSTKLLAVDFPAHFVKSISCQICEHILADPVETSCKHLFCRICILRCLKVMGSYCPSCRYPCFPTDLESPVKSFLNILNSLMVKCPAQDCNEEVSLEKYNHHVSSHKESK
notes: RAG1, murine, residues 218-380 (basic region plus zinc dimerization domain, ZDD 265-380); Four zinc ions per monomer; Predicted dimeric mass 123,634 Da; also called MBP-RAG1(218-380); basic-zinc dimerization domain fused to MBP; source: E. coli BL21, purified (amylose resin, SEC); not shown: MBP, N-terminal, kept
B1 was tested, and the “stoichiometry N” value [1] was 2.

B2: WT 12-RSS (dsDNA)
DNA 1: GATATGGCTCGTCTTACACAGTGATATAGACCTTAACAAAAACCTCCAATCGAGCGGAG
DNA 2: CTCCGCTCGATTGGAGGTTTTTGTTAAGGTCTATATCACTGTGTAAGACGAGCCATATC
With B2 the Kd [2] was 1550 nM and the Kd (MBP-bZDD) was about 1730 nM.

B3: WT 12-RSS, Oregon Green (dsDNA)
DNA 1: GATATGGCTCGTCTTACACAGTGATATAGACCTTAACAAAAACCTCCAATCGAGCGGAG
DNA 2: CTCCGCTCGATTGGAGGTTTTTGTTAAGGTCTATATCACTGTGTAAGACGAGCCATATC
For B3, the Kd [3] was 1550 nM.

GATATGGCTCGTCTTATAAGACGAGCCATATC (structured_DNA) [32 nt hairpin coding flank]: binds [4]; binds (MBP-CND+bZDD).

B4: mutant nonamer (MN) 12-RSS (dsDNA)
DNA 1: GATATGGCTCGTCTTACACAGTGATATAGACCTTAAGGCTCTGATCCAATCGAGCGGAG
DNA 2: CTCCGCTCGATTGGATCAGAGCCTTAAGGTCTATATCACTGTGTAAGACGAGCCATATC
B4: binds [5].

B5: mutant heptamer (MH) 12-RSS (dsDNA)
DNA 1: GATATGGCTCGTCTTAGAGAAGCATATAGACCTTAACAAAAACCTCCAATCGAGCGGAG
DNA 2: CTCCGCTCGATTGGAGGTTTTTGTTAAGGTCTATATGCTTCTCTAAGACGAGCCATATC
B5: binds [5].

— paper PMC3124419, “Elucidating the domain architecture and functions of non-core RAG1: The capacity of a non-core zinc-binding domain to function in nuclear import and nucleic acid binding” (BMC Biochemistry, 2011)
